# Test results taken from US7838294B2, “Inhibitors of the JNK signal transduction pathway and methods of use” (University of Massachusetts, priority 1997, dated 2010).
# Key:
# [1] = target: T1, JNK2 (Homo sapiens, UniProt P45984); assay: Co-immunoprecipitation of JIP-1 with JNK2; format: binding; conditions: protein immunoblot
# T1 construct: expressed in transfected cells
# [2] = test system: JNK; assay: Immune complex protein kinase assay: JNK, substrate GST-Jun; format: biochemical, Chinese hamster; conditions: in vitro, 3 μg GST-Jun, 30 minutes at 30° C.
# Description: (§1) To test whether JIP-1 competes with Jun and ATF2 for interaction with JNK, the effect of JIP-1 on transcription factor-mediated phosphorylation of exogenous substrates was analyzed using an in vitro protein kinase assay. In these experiments, Chinese hamster ovary (CHO) cells were serum-starved for one hour. In some experiments, the cells were treated with 10 ng/ml mouse interleukin 1 or 100 nM phorbol myristic acetate. JNK, p38, and ERK protein kinase activity was measured in an immune complex kinase assay using 3 μg of the substrates GST-Jun, GST-ATF2, and myelin basic protein (MBP), respectively. Protein kinase assays were performed using 40 μl 20 mM Hepes (pH 7.4), 20 mM MgCl2, 20 mM β-glycerophosphate, 2 mM dithiothreitol, 0.1 mM sodium orthovanadate, 50 μM [γ-^32P]ATP (10 Ci/mmol). After incubation for 30 minutes at 30° C., phosphorylation of substrates was analyzed by polyacrylamide gel electrophoresis and autoradiography.
# [3] = test system: ERK2; assay: Immune complex protein kinase assay: ERK, substrate MBP; format: biochemical, Chinese hamster; conditions: in vitro, 3 μg myelin basic protein
# Description: as §1
# [4] = test system: ATF2 transcriptional activity; assay: GAL4 luciferase reporter assay in CHO cells: GAL4-ATF2; format: cell-based, Chinese hamster
# Description: In these experiments, CHO cells were cotransfected with constructs encoding the transcription factors and JIP-1 using previously described methods. Dérijard et al., supra; Sluss et al., supra; Gupta et al., supra. A luciferase reporter plasmid was used to monitor the expression of the transcription factors. Transfection efficiency was determined using a β-galactosidase expression vector. Constructs used in these experiments included GAL4 fusions with the c-myc, Sp1 and VP16 activation domains (described in Whitmarsh et al., Science, 269:403 (1995); Davis, Science, 269:403 (1995); Gille et al., Curr. Biol., 5:1191 (1995)). Other constructs used were GAL4-c-Jun, in which GAL4 is fused to c-Jun; GAL4-c-Jun (S63A/S73A), in which GAL4 is fused to a mutant c-Jun in which the serines at positions 63 and 73 have been changed to alanines; GAL4-ATF2, in which GAL4 is fused to wild type ATF2 (ATF2(Thr-69, 71)); GAL4-ATF2 (T69A/T71A) (ATF2(Ala-69/71)), in which GAL4 has been fused to a mutant ATF2 in which the […] at positions 69 and 71 have been changed to alanines; GAL4-Elk-1, in which GAL4 has been fused to Elk-1; and GAL4-Elk-1 (S383A), in which GAL4 has been fused to a mutant Elk-1 in which the serine at position 383 has been changed to an alanine. Gupta et al., EMBO J, 15:2760-2770 (1996); Raingeaud et al., Mol. Cell. Biol., 16:1247-1255 (1996); Whitmarsh et al. Science, 269:403-407 (1995).
# Insertional overlapping PCR, described in detail in Ho, supra, was used to construct expression vectors for the JNK binding domain (JBD; amino acid residues 127-281) of JIP-1 and for a mutant JIP-1 lacking the SH3 (amino acid residues 491-540) domain.
# (§2) Transfected cells were activated by treatment with 10% (v/v) fetal calf serum, and luciferase and β-galactosidase activities were measured in cell lysates at 48 hours post-transfection. The data are presented as the ratio of luciferase activity (light units) to β-galactosidase activity (OD units) measured in the cell extracts (mean±SEM (n=3)), and are normalized to the luciferase activity detected in the absence of JBD (FIGS. 4A and 4B) or ATF2 (FIG. 4C).
# [5] = test system: Elk-1 transcriptional activity; assay: GAL4 luciferase reporter assay in CHO cells: GAL4-Elk-1; format: cell-based, Chinese hamster; conditions: FIG. 4B
# Description: In these experiments, CHO cells were cotransfected with constructs encoding the transcription factors and JIP-1 using previously described methods. Dérijard et al., supra; Sluss et al., supra; Gupta et al., supra. A luciferase reporter plasmid was used to monitor the expression of the transcription factors. Transfection efficiency was determined using a β-galactosidase expression vector. Constructs used in these experiments included GAL4 fusions with the c-myc, Sp1 and VP16 activation domains (described in Whitmarsh et al., Science, 269:403 (1995); Davis, Science, 269:403 (1995); Gille et al., Curr. Biol., 5:1191 (1995)). […]
# as §2
molecule,measurement,setting,value
JIP-1: 660 amino acid murine cytoplasmic protein that specifically binds JNK (protein) MAERESGLGGGAASPPAASPFLGLHIASPPNFRLTHDISLEEFEDEDLSEITDECGISLQCKDTLSLRPPRAGLLSAGSSGSAGSRLQAEMLQMDLIDAAGDTPGAEDDEEEEDDELAAQRPGVGPPKAESNQDPAPRSQGQGPGTGSGDTYRPKRPTTLNLFPQVPRSQDTLNNNSLGKKHSWQDRVSRSSSPLKTGEQTPPHEHICLSDELPPQGSPVPTQDRGTSTDSPCRRSAATQMAPPSGPPATAPGGRGHSHRDRIHYQADVRLEATEEIYLTPVQRPPDPAEPTSTFMPPTESRMSVSSDPDPAAYSVTAGRPHPSISEEDEGFDCLSSPERAEPPGGGWRGSLGEPPPPPRASLSSDTSALSYDSVKYTLVVDEHAQLELVSLRPCFGDYSDESDSATVYDNCASASSPYESAIGEEYEEAPQPRPPTCLSEDSTPDEPDVHFSKKFLNVFMSGRSRSSSAESFGLFSCVINGEEHEQTHRAIFRFVPRHEDELELEVDDPLLVELQAEDYWYEAYNMRTGARGVFPAYYAIEVTKEPEHMAALAKNSCVLEISVRGVKIGVKADDALEAKGNKCSHFFQLKNISFCGYHPKNNKYFGFITKHPADHRFACHVFVSEDSTKALAESVGRAFQQFYKQFVEYTCPTEDIYLE,co-immunoprecipitation of JIP-1 with JNK2,[1],observed
same,phosphorylation of c-Jun by JNK,[2],markedly inhibited
same,phosphorylation of substrate by ERK2,[3],no significant change
same,basal transcriptional activity of ATF2 mutated at JNK phosphorylation sites,"[4]; GAL4-ATF2 (T69A/T71A), FIG. 4B",not markedly inhibited
same,JNK-regulated gene expression,"[4]; GAL4-ATF2 reporter, CHO cells, FIG. 4C",inhibition
same,ATF2 transcriptional activity,"[4]; wild type GAL4-ATF2, CHO cells, FIG. 4B",Significant inhibition
same,basal transcriptional activity of Elk-1 mutated at JNK phosphorylation sites,[5]; GAL4-Elk-1 (S383A),not markedly inhibited
same,Elk-1 transcriptional activity,"[5]; wild type GAL4-Elk-1, CHO cells",partial inhibition
